US20180155451A1 (published 2018)

T1: FcγRIIa R (human, UniProt P12318 34-217)
T1 construct: extracellular domain; Soluble extracellular domain with C-terminal His tag, expressed in FreeStyle293 cells; also called FcgRIIa R; FcγRIIa type R; not shown: His tag attached to the C terminus
T1 sequence (looked up): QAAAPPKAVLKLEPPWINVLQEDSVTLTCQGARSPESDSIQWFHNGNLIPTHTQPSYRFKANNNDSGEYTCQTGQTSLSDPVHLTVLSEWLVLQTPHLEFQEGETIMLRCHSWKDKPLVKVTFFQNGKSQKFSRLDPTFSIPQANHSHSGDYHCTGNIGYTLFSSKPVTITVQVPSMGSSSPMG


Target: T1, FcγRIIa R
Assay: SPR (Biacore), antibody captured via antigen peptide, FcγRIIa R as analyte; homodimerized antibody

Row | Ho/Con_2aR | Binder
1 | 102 % of control (GpH7-B3/GpL16-k0 = 100) | GpH7-B3 variant T335_16H/GpL16-k0 (antibody, human IgG1, kappa, homodimerized; mutation in both H chains; also called Ho Ab) heavy: not shown light: DIVMTQSPLSLPVTPGEPASISCQASESLVHSNRNTYLHWYLQKPGQSPQLLIYKVSNRFSGVPDRFSGSGSGTDFTLKISRVEAEDVGVYYCSQNTHVPPTFGQGTKVEIERTVAAPSVFIFPPSDEQLKSGTASVVCLLNNFYPREAKVQWKVDNALQSGNSQESVTEQDSKDSTYSLSSTLTLSKADYEKHKVYACEVTHQGLSSPVTKSFNRGEC
2 | 100 % of control (GpH7-B3/GpL16-k0 = 100) | GpH7-B3 variant T335_18N/GpL16-k0 (antibody, human IgG1, kappa, homodimerized; mutation in both H chains; also called Ho Ab) heavy: not shown light: DIVMTQSPLSLPVTPGEPASISCQASESLVHSNRNTYLHWYLQKPGQSPQLLIYKVSNRFSGVPDRFSGSGSGTDFTLKISRVEAEDVGVYYCSQNTHVPPTFGQGTKVEIERTVAAPSVFIFPPSDEQLKSGTASVVCLLNNFYPREAKVQWKVDNALQSGNSQESVTEQDSKDSTYSLSSTLTLSKADYEKHKVYACEVTHQGLSSPVTKSFNRGEC
3 | 102 % of control (GpH7-B3/GpL16-k0 = 100) | GpH7-B3 variant T335_19Q/GpL16-k0 (antibody, human IgG1, kappa, homodimerized; mutation in both H chains; also called Ho Ab) heavy: not shown light: DIVMTQSPLSLPVTPGEPASISCQASESLVHSNRNTYLHWYLQKPGQSPQLLIYKVSNRFSGVPDRFSGSGSGTDFTLKISRVEAEDVGVYYCSQNTHVPPTFGQGTKVEIERTVAAPSVFIFPPSDEQLKSGTASVVCLLNNFYPREAKVQWKVDNALQSGNSQESVTEQDSKDSTYSLSSTLTLSKADYEKHKVYACEVTHQGLSSPVTKSFNRGEC

More lines, now with the values behind:

Row | Binder | Ho/Con_2aR
4 | GpH7-B3 variant T335_20W/GpL16-k0 (antibody, human IgG1, kappa, homodimerized; mutation in both H chains; also called Ho Ab) heavy: not shown light: DIVMTQSPLSLPVTPGEPASISCQASESLVHSNRNTYLHWYLQKPGQSPQLLIYKVSNRFSGVPDRFSGSGSGTDFTLKISRVEAEDVGVYYCSQNTHVPPTFGQGTKVEIERTVAAPSVFIFPPSDEQLKSGTASVVCLLNNFYPREAKVQWKVDNALQSGNSQESVTEQDSKDSTYSLSSTLTLSKADYEKHKVYACEVTHQGLSSPVTKSFNRGEC | 101 % of control (GpH7-B3/GpL16-k0 = 100)
5 | GpH7-B3 variant Y296_20W/GpL16-k0 (antibody, human IgG1, kappa, homodimerized; mutation in both H chains; also called Ho Ab) heavy: not shown light: DIVMTQSPLSLPVTPGEPASISCQASESLVHSNRNTYLHWYLQKPGQSPQLLIYKVSNRFSGVPDRFSGSGSGTDFTLKISRVEAEDVGVYYCSQNTHVPPTFGQGTKVEIERTVAAPSVFIFPPSDEQLKSGTASVVCLLNNFYPREAKVQWKVDNALQSGNSQESVTEQDSKDSTYSLSSTLTLSKADYEKHKVYACEVTHQGLSSPVTKSFNRGEC | 107 % of control (GpH7-B3/GpL16-k0 = 100)
6 | GpH7-B3 variant V266_06M/GpL16-k0 (antibody, human IgG1, kappa, homodimerized; mutation in both H chains; also called Ho Ab) heavy: not shown light: DIVMTQSPLSLPVTPGEPASISCQASESLVHSNRNTYLHWYLQKPGQSPQLLIYKVSNRFSGVPDRFSGSGSGTDFTLKISRVEAEDVGVYYCSQNTHVPPTFGQGTKVEIERTVAAPSVFIFPPSDEQLKSGTASVVCLLNNFYPREAKVQWKVDNALQSGNSQESVTEQDSKDSTYSLSSTLTLSKADYEKHKVYACEVTHQGLSSPVTKSFNRGEC | 146 % of control (GpH7-B3/GpL16-k0 = 100)
7 | GpH7-B3 variant Y300_04F/GpL16-k0 (antibody, human IgG1, kappa, homodimerized; mutation in both H chains; also called Ho Ab) heavy: not shown light: DIVMTQSPLSLPVTPGEPASISCQASESLVHSNRNTYLHWYLQKPGQSPQLLIYKVSNRFSGVPDRFSGSGSGTDFTLKISRVEAEDVGVYYCSQNTHVPPTFGQGTKVEIERTVAAPSVFIFPPSDEQLKSGTASVVCLLNNFYPREAKVQWKVDNALQSGNSQESVTEQDSKDSTYSLSSTLTLSKADYEKHKVYACEVTHQGLSSPVTKSFNRGEC | 109 % of control (GpH7-B3/GpL16-k0 = 100)

Target: T1, FcγRIIa R
Assay: SPR (Biacore), antibody captured via antigen peptide, FcγRIIa R as analyte; heterodimerized antibody
Protocol: Analysis of interaction between objective antibody and the FcγR was carried out using Biacore T100 (GE Healthcare). HBS-EP+ (GE Healthcare) was used as the running buffer, and the measurement temperature was set to 25° C. Chips produced by immobilizing the antigen peptide by the amine coupling method to a Series S Sencor Chip CM5 (GE Healthcare), or alternatively, chips produced by allowing preliminarily biotinylated antigen peptides to interact with and immobilize onto a Series S Sensor Chip SA (certified) (GE Healthcare) were used. Antibodies of interest were captured onto an antigen peptide-immobilized chip, and allowed to interact to each FcγR diluted with running buffer. To regenerate and repeatedly use the chip, the antibodies captured on the chip were washed off by reacting 10 mM glycine-HCl, pH 1.5.

Row | He/Con_2aR | Binder
8 | 111 % of control (GpH7-A5/GpH7-B3/GpL16-k0 = 100) | GpH7-A5/GpH7-B3 variant T335_15Y/GpL16-k0 (antibody, human IgG1, kappa, heterodimerized; mutation in one H chain only; also called He Ab) heavy 1: not shown heavy 2: not shown light: DIVMTQSPLSLPVTPGEPASISCQASESLVHSNRNTYLHWYLQKPGQSPQLLIYKVSNRFSGVPDRFSGSGSGTDFTLKISRVEAEDVGVYYCSQNTHVPPTFGQGTKVEIERTVAAPSVFIFPPSDEQLKSGTASVVCLLNNFYPREAKVQWKVDNALQSGNSQESVTEQDSKDSTYSLSSTLTLSKADYEKHKVYACEVTHQGLSSPVTKSFNRGEC
9 | 148 % of control (GpH7-A5/GpH7-B3/GpL16-k0 = 100) | GpH7-A5/GpH7-B3 variant K326_09D/GpL16-k0 (antibody, human IgG1, kappa, heterodimerized; mutation in one H chain only; also called He Ab) heavy 1: not shown heavy 2: not shown light: DIVMTQSPLSLPVTPGEPASISCQASESLVHSNRNTYLHWYLQKPGQSPQLLIYKVSNRFSGVPDRFSGSGSGTDFTLKISRVEAEDVGVYYCSQNTHVPPTFGQGTKVEIERTVAAPSVFIFPPSDEQLKSGTASVVCLLNNFYPREAKVQWKVDNALQSGNSQESVTEQDSKDSTYSLSSTLTLSKADYEKHKVYACEVTHQGLSSPVTKSFNRGEC
10 | 106 % of control (GpH7-A5/GpH7-B3/GpL16-k0 = 100) | GpH7-A5/GpH7-B3 variant G236_09D/GpL16-k0 (antibody, human IgG1, kappa, heterodimerized; mutation in one H chain only; also called He Ab) heavy 1: not shown heavy 2: not shown light: DIVMTQSPLSLPVTPGEPASISCQASESLVHSNRNTYLHWYLQKPGQSPQLLIYKVSNRFSGVPDRFSGSGSGTDFTLKISRVEAEDVGVYYCSQNTHVPPTFGQGTKVEIERTVAAPSVFIFPPSDEQLKSGTASVVCLLNNFYPREAKVQWKVDNALQSGNSQESVTEQDSKDSTYSLSSTLTLSKADYEKHKVYACEVTHQGLSSPVTKSFNRGEC
